For assay [1], the target named is T1, mouse matriptase-2 ECD protein his tag (mouse, UniProt Q9DBI0 80-811).
T1 sequence: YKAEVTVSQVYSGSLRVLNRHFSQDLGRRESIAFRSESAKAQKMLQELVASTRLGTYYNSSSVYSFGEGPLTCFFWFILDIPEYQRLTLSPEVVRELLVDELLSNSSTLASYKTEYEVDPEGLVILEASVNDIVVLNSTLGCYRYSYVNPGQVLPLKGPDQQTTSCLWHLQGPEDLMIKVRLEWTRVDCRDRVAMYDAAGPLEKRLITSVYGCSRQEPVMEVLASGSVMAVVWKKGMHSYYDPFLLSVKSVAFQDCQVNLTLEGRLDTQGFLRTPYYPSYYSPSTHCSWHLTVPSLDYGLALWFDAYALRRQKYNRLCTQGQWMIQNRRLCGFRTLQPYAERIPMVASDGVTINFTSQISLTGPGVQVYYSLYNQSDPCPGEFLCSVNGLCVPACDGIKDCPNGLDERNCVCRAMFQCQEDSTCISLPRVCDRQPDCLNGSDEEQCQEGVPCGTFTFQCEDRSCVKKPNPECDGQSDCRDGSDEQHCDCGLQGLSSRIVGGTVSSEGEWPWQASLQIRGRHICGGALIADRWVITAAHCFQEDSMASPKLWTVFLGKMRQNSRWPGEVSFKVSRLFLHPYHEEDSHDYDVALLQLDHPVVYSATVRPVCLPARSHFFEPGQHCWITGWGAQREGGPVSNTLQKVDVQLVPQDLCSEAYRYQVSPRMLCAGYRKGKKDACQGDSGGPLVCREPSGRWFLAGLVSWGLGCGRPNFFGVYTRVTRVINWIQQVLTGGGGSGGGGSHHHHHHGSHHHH
In words: cell-based or functional assay.

The target in assay [2] is T2, human matriptase-2 ECD protein his tag (human, UniProt Q8IU80 78-811).
T2 sequence: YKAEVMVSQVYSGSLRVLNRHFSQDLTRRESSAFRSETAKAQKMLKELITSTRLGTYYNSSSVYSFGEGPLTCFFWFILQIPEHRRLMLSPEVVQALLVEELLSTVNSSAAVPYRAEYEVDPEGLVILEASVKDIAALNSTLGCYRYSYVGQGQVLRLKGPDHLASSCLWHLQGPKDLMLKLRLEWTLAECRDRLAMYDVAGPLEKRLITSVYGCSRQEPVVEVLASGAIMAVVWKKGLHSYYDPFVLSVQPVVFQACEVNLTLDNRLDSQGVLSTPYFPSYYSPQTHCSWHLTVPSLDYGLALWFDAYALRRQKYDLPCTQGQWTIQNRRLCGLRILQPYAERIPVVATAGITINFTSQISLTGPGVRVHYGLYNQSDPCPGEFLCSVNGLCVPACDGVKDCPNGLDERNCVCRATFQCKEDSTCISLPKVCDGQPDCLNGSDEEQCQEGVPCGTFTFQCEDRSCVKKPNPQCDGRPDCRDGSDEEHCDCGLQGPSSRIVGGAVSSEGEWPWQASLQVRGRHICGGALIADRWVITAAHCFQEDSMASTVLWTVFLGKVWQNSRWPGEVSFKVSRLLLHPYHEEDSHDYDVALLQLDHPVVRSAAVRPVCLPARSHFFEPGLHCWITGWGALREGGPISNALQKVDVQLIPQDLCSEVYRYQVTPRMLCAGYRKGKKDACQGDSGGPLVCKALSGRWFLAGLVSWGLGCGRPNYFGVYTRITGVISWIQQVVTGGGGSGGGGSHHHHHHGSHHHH
Nature of the assay: cell-based or functional assay.

Assay [3] deals with T3, human MTP-2 expressed on HEK293 cells (human, UniProt Q8IU80 1-811).
T3 sequence: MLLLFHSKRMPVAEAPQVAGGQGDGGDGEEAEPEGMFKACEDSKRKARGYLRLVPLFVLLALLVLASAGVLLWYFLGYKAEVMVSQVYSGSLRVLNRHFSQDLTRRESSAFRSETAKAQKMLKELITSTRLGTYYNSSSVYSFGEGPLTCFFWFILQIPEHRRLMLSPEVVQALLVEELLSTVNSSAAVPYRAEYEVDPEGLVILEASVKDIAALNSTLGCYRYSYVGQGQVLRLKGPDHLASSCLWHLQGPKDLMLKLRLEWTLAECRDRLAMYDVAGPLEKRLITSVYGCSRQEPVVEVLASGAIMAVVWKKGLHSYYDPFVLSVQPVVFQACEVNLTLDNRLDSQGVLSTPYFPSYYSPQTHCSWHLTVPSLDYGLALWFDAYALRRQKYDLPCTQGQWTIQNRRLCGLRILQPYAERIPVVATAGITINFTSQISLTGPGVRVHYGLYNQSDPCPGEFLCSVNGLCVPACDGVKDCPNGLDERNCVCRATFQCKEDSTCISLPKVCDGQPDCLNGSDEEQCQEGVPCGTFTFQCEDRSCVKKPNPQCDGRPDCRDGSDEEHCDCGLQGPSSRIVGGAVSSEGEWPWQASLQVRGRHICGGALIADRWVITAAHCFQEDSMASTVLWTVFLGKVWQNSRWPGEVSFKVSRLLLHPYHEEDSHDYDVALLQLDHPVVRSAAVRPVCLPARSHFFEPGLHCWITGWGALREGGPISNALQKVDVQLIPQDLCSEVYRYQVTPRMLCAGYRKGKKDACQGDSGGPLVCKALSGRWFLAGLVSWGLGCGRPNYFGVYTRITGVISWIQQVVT
In words: cell-based or functional assay.

For assay [4], the target named is T4, human matriptase-2 mask ECD protein his tag (human, UniProt Q8IU80 78-576).
T4 construct: MTP-2 ECD without the serine protease domain, with C-terminal linker and His tag; also called headless huMTP-2 ECD 78-576 aa; headless human MTP-2 ECD
T4 sequence: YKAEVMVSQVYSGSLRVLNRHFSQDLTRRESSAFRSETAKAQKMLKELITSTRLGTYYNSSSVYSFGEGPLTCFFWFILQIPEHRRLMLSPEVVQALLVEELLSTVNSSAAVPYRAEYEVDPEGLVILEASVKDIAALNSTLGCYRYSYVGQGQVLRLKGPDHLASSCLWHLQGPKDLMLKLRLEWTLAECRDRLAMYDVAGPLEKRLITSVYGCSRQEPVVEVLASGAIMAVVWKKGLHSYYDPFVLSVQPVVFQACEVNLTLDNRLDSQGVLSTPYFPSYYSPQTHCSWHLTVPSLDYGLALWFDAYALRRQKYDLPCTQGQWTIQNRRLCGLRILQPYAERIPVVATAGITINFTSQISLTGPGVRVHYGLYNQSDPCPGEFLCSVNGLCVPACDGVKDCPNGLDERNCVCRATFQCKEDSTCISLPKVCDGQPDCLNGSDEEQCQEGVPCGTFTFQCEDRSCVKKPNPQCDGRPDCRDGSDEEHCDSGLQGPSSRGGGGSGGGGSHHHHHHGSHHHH
In words: SPR, antibody captured, headless ECD as analyte. The protocol:
(§1) Off-rate screening was performed by surface plasmon resonance (SPR), using a Biacore 8K system (GE Healthcare). Anti-human Fc mix (˜1000 RU) were immobilised in both active and reference channels in HBS-P+ buffer (GE BR100671) pH 7.4. Anti-MTP-2 hulgG4PE antibodies were then captured for 60 sec at 10 μl/min at 1 μg/ml concentration (approximatively 35 and 50 RU were captured) only on the active channel. MTP-2 ECD protein analytes were then injected (at 100, 25, 6.25, 1.56 and 0 nM concentrations) for 120 sec (association time) at 30 μl/min and dissociation monitored for 600 sec. Multiple cycle kinetics mode was used with all 8 channels being used. Reference and background were subtracted from the sensorgrams for each antibody and data was fitted using a 1:1 interaction model in the Biacore evaluation software. Rmax, ka, kd globally fitted, RI=0.
Binding was also assessed using the above SPR method with “headless” huMTP-2 ECD 78-576 aa instead of the full ECD. Headless ECD corresponds to the MTP-2 ECD without the serine protease domain.
Background: In SPR one partner is held on a chip, and binding of the other changes the refractive index at the surface.

Assay [5] deals with T1, mouse matriptase-2 ECD protein his tag. Nature of the assay: SPR (Biacore 8K), huIgG4PE captured on anti-human Fc, MTP-2 ECD as analyte, 1:1 fit. The protocol:
as §1

The target in assay [6] is T2, human matriptase-2 ECD protein his tag. The assay is described as above. The protocol: as §1

As a reminder, the Kd is the equilibrium constant for the complex coming apart. Higher therefore signals lower affinity. A word on the koff: it is the rate constant with which the complex falls apart. A word on the kon: it is a measure of how fast the partners come together. A higher kon goes with fast association.

B1: NORI-033 (antibody, human IgG4 S228P, lambda, V domains shown)
VH: QLQLQESGPGLVKPSETLSLTCTVSGDSISSHTYWWGWIRQPPGKGLEWIGSMFYSGSTYYNPSLKSRVVISVDTSRNQFSLKVRSVTAADTAVFYCARHNNWGMENYFDDWGQGTLVTVSS
VL: SYALTQPPSVSVSPGQTARITCSADALPDQYGYWYQQKPGQAPVLVIYKDSERPSGIPERFSGSSSGTTVTLTISGVQAEDEADYYCQSADSSGSYVVFGGGTKLTVLG
B1: the “Inhibition enzymatic activity mouse MTP2 protein (IC50)” value in assay [1] is 1.73 nM. Besides, the “Inhibition enzymatic activity human MTP2 protein (IC50)” value in assay [2] stood at 2.84 nM. In addition, the “Inhibition enzymatic activity human MTP2 on cells (IC50)” value in assay [3] was determined as 0.206 nM.

B2: NORI-009 (antibody, human IgG4 S228P, lambda, V domains shown)
VH: EVQLVESGGGLVQPGRSLRLSCAASGFTFNDHVIYWVRQVPGKGLEWVSTISWNSDTIAYADSVKGRFTISRDNAKNALYLQMNSLRTEDTALYYCAREKDGDFYYDYFAMDVWGQGTTVTVSS
VL: QSALTQPPSASGSPGQSVTLSCTGTSSDVGYYNYVSWYLQHPGKAPKLMIYEVSKRPSGVPDRFSGSKSANTASLTVSGLQAEDEADYYCSSYAGSNKVVFGGGTKVTVLG
notes: human IgG4PE, lambda
For B2, the binding result in assay [4] is “no binding (tested: analyte up to 100 nM)”. In assay [5], the “Binding Late top conc” value amounted to 5, the Kd came out at 19.6 nM, the Stoichiometry turned out to be 0.47 and the dissociation rate constant (koff) was 0.000693 s⁻¹. The same molecule returned a kon in assay [5] of 35400 M⁻¹ s⁻¹. In assay [6], the “Binding Late top conc” value was found to be 8.6, binding was characterised by a dissociation constant (Kd) of 15 nM, the Stoichiometry was 0.48 and the koff came to 0.00112 s⁻¹. The molecule further had a kon in assay [6] of 74800 M⁻¹ s⁻¹. For the same molecule, the “Inhibition enzymatic activity mouse MTP2 protein (IC50)” value in assay [1] came to 17.6 nM. Moreover, the “Inhibition enzymatic activity human MTP2 protein (IC50)” value in assay [2] stood at 55.5 nM. For the same molecule, the “Inhibition enzymatic activity human MTP2 on cells (IC50)” value in assay [3] was 5.68 nM.

B3: NORI-010 (antibody, human IgG4 S228P, lambda)
heavy: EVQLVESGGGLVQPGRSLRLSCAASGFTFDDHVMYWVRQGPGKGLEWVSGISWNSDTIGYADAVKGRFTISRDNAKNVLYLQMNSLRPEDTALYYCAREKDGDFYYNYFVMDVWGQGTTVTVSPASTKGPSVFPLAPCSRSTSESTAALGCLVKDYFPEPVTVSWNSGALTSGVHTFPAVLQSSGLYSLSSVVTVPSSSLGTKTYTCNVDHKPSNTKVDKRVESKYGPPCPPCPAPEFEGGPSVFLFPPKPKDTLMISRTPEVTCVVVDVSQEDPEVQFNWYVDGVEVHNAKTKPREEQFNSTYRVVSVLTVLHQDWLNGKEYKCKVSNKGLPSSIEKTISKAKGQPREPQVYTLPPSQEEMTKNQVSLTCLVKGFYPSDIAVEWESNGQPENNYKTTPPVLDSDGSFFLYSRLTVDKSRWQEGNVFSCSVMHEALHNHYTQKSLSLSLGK
light: QSALTQPPSASGSPGQSVTISCTGTSSDVGFYNFVSWYQQHPDKAPKVMIYEVSKRPSGVPDRFSGSKSGNTASLTVSGLQAEDEADYYCSSYAGSNKVVFGGGTKLTVLGQPKAAPSVTLFPPSSEELQANKATLVCLISDFYPGAVTVAWKADSSPVKAGVETTTPSKQSNNKYAASSYLSLTPEQWKSHRSYSCQVTHEGSTVEKTVAPTECS
notes: human IgG4PE, lambda
On to B3, for which, in assay [4], the binding result was “no binding (tested: analyte up to 100 nM)”. In assay [5], the “Binding Late top conc” value was determined as 4.5, the Kd came to 24.4 nM, the off-rate constant (koff) came to 0.000324 s⁻¹ and the kon was determined as 13300 M⁻¹ s⁻¹. For the same molecule, in assay [6], the “Binding Late top conc” value came to 7.9, binding was characterised by a dissociation constant (Kd) of 10.5 nM, the Stoichiometry was 0.63 and the dissociation rate constant (koff) came out at 0.000442 s⁻¹. Further, the kon in assay [6] stood at 42300 M⁻¹ s⁻¹. Besides, in assay [1], the “Inhibition enzymatic activity mouse MTP2 protein (IC50)” value is 9.76 nM. In addition, the “Inhibition enzymatic activity human MTP2 protein (IC50)” value in assay [2] stood at 17.7 nM. For the same molecule, the “Inhibition enzymatic activity human MTP2 on cells (IC50)” value in assay [3] is 3.51 nM.

B4: NORI-012 (antibody, human IgG4 S228P, lambda, V domains shown)
VH: EVQLVESGGGLVQPGRSLRLSCAASGFTFDDHVMYWVRQAPGKGLEWVSGISWNSDTIGYADAVKGRFTISRDNAKNVLYLHMNSLRPEDTALYYCAREKDGDFYYNYFVMDVWGQGTTVTVSP
VL: QSALTQPPSASGSPGQSVTISCTGTSSDVGFYNFVSWYQQHPDKAPKVMIYEVSKRPSGVPDRFSGSKSGNTASLTVSGLQAEDEADYYCSSYAGSNKVVFGGGTKLTVLG
notes: human IgG4PE, lambda
As to B4, the binding result in assay [4] is reported as “no binding (tested: analyte up to 100 nM)”. In assay [5], the “Binding Late top conc” value came to 4.6, the Kd turned out to be 29 nM, the Stoichiometry turned out to be 1.08 and the koff was determined as 0.000337 s⁻¹. Moreover, the on-rate constant (kon) in assay [5] was found to be 11600 M⁻¹ s⁻¹. In assay [6], the “Binding Late top conc” value stood at 8.5, the equilibrium dissociation constant (Kd) was 9.13 nM, the Stoichiometry is 0.6 and the dissociation rate constant (koff) came out at 0.000427 s⁻¹. In assay [6], this molecule had a kon of 46700 M⁻¹ s⁻¹. The “Inhibition enzymatic activity mouse MTP2 protein (IC50)” value in assay [1] came out at 11.5 nM. Moreover, the “Inhibition enzymatic activity human MTP2 protein (IC50)” value in assay [2] stood at 21.2 nM. Further, the “Inhibition enzymatic activity human MTP2 on cells (IC50)” value in assay [3] was 4.26 nM.

B5: NORI-032 (antibody, human IgG4 S228P, lambda, V domains shown)
VH: QVQLVQSGAEVRKPGAAVKVSCKASGYTFSSFGITWIRQAPGQGLEWMGWISAYNGISNSAQKVQGRVTMTTDTSTSTAYMELRSLRSDDSAVYYCARDRANRDALDVWGQGTKVTVSL
VL: SHELTQPPSMSVSPGQTASITCSGDELGDRYACWYQQKPGQSPVLVIYQDTKRPSGIPERFSGSISGNTATLTISGTQAMDEADYYCQAWDSSTVVFGGGTKLTVLG
Turning to B5, the “Inhibition enzymatic activity mouse MTP2 protein (IC50)” value in assay [1] was found to be 0.716 nM. In addition, the “Inhibition enzymatic activity human MTP2 protein (IC50)” value in assay [2] came out at 1.6 nM. Moreover, the “Inhibition enzymatic activity human MTP2 on cells (IC50)” value in assay [3] worked out at 1.66 nM.
